Data set [1] has as its target T1, purified recombinant MEKK1 NH2-terminal fusion protein (50 kD) (UniProt P53349).
T1 sequence: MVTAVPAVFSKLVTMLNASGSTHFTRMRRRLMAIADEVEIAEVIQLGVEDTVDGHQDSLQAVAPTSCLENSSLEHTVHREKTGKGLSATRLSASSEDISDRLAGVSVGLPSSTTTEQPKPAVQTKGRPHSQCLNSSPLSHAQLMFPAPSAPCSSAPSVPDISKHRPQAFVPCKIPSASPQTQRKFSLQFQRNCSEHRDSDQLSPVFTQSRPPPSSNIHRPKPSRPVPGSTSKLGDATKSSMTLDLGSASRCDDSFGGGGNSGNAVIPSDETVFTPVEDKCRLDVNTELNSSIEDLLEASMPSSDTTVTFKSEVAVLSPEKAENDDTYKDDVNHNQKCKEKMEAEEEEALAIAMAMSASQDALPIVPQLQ

Data set [2] deals with purified recombinant catalytically inactive MEK-1.

As to “98 kD MEKK protein (98 kD MEKK1) of PC12, Rat1a, NIH3T3 and Swiss3T3 cells”, the “phosphorylation of the MEKK1 NH2-terminal fusion protein by immunoprecipitates (in vitro kinase assay)” value in data set [1] was “MEKK1 immunoprecipitated from lysates of EGF-stimulated and unstimulated PC12 cells robustly phosphorylated the inert 50 kD MEKK1 NH2-fusion protein”. For the same substance, the “phosphorylation of kinase inactive MEK-1 by Mono Q fractions (in vitro kinase assay)” value in data set [2] is given as “Fractions 10-14 of lysate from PC 12 cells treated with EGF phosphorylated MEK-1”.

For the origin of these results see patent US20020055130.
